According to patent publication US8697349:

Biological target: Cy5-labeled Goat anti mouse IgG (AP127S, available from CHEMICON International Inc.) (goat)
Experiment: Cy5 fluorescence of antibody at peptide spot on AZO film after 17 h light irradiation, array scanner; reference: water instead of peptide

fixability, fold over Comparative Example 1, > 10 fold:
LATAIAAIAAAI [synthetic peptide LAT …]
QAAAIAAIAAAI [synthetic peptide QAA …]
FATAIAAIAAAI [synthetic peptide FAT …]
VAAAIAAIAAAI [synthetic peptide VAA …]
INSAIAAIAAAI [synthetic peptide INS …]
IMTAIAAIAAAI [synthetic peptide IMT …]
AAAAIAAIAAAI [synthetic peptide AAA …]
IHTAIAAIAAAI [synthetic peptide IHT …]
IAAAIAAIAAAI [synthetic peptide IAA …]
ISTAIAAIAAAI [synthetic peptide IST …]
IQTAIAAIAAAI [synthetic peptide IQT …]
ITTAIAAIAAAI [synthetic peptide ITT …]
IAYAIAAIAAAI [synthetic peptide IAY …]
IASAIAAIAAAI [synthetic peptide IAS …]
IITAIAAIAAAI [synthetic peptide IIT …]
IATAIAAIAAAI [synthetic peptide IAT …]
IAIAIAAIAAAI [synthetic peptide IAI …]
IGSAIAAIAAAI [synthetic peptide IGS …]
IVSAIAAIAAAI [synthetic peptide IVS …]
ISSAIAAIAAAI [synthetic peptide ISS …]
IPTAIAAIAAAI [synthetic peptide IPT …]
ATAAIAAIAAAI [synthetic peptide ATA …]
PAAAIAAIAAAI [synthetic peptide PAA …]
IQSAIAAIAAAI [synthetic peptide IQS …]
PATAIAAIAAAI [synthetic peptide PAT …]
ITSAIAAIAAAI [synthetic peptide ITS …]
VATAIAAIAAAI [synthetic peptide VAT …]
AATAIAAIAAAI [synthetic peptide AAT …]
FAAAIAAIAAAI [synthetic peptide FAA …]
LAAAIAAIAAAI [synthetic peptide LAA …]
IAEAIAAIAAAI [synthetic peptide IAE …]
WATAIAAIAAAI [synthetic peptide WAT …]

Biological target: Cy5-labeled Goat anti mouse IgG (AP127S, available from CHEMICON International Inc.) (goat)
Experiment: Rabbit anti goat IgG fixed on AZO film via synthetic peptides, probed with Cy5-labeled goat IgG, array scanner; reference: antibody directly light-fixed

Immobilized antibody activity, fold over Comparative Example 2, 3 to 30 fold:
anti goat IgG rabbit-IgG (A50-100A, available from Bethyl Laboratories, Inc.) (antibody)
